Patent US20120172295A1 (INDIANA UNIVERSITY RESEARCH AND TECHNOLOGY, published 2012)
Read-outs that look alike come from different tables or passages of the source. Starred links: 1 amine or outer side, 2 acyl side, 3 side chain; linkers in the order of their positions; H or OH if unused. Positions of bridges follow the written chain, without caps; N, C: chain ends. Non-standard residues stand in square brackets, D forms with d. Groups on a side chain read outwards from the residue. No end group written: not given here. *: point of attachment. γGlu = O=C(O)[C@H](CCC(=O)[*:2])N[*:1]; PEG40kDa = 40 kDa polyethylene glycol; Stearoyl = CCCCCCCCCCCCCCCCCC(=O)*; Palmitoyl = CCCCCCCCCCCCCCCC(=O)*; Myristoyl = CCCCCCCCCCCCCC(=O)*; Dab = NCC[C@H](N)C(=O)O; Aib = CC(C)(N)C(=O)O

What was measured:
Test in all cases: cell-based or functional assay
glucagon receptor [1] = target: T1, glucagon receptor (UniProt P47871 26-477, limits assumed)
T1 sequence (P47871 26-477 limits assumed): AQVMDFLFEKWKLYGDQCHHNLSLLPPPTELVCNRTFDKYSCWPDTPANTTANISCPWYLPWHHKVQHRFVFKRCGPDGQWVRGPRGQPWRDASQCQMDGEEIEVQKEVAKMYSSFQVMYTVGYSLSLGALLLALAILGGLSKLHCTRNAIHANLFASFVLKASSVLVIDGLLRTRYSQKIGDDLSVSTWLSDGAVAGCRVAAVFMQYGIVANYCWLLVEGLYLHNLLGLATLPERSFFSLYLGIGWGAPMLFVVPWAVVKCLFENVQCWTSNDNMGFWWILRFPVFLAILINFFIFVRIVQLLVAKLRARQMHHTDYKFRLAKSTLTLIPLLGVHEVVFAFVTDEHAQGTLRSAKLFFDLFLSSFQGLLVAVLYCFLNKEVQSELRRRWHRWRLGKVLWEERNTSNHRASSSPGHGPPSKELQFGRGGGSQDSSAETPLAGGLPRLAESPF

GLP-1 receptor [2] = target: T2, GLP-1 receptor (UniProt P43220 24-463, limits assumed)
glucagon receptor [3] = target: T1, glucagon receptor; remark: listed apart in the source
GLP-1 receptor [4] = target: T2, GLP-1 receptor; remark: listed apart in the source
glucagon receptor [5] = target: T1, glucagon receptor; remark: listed apart in the source
GLP-1 receptor [6] = target: T2, GLP-1 receptor; remark: listed apart in the source
glucagon receptor [7] = target: T1, glucagon receptor; remark: listed apart in the source
GLP-1 receptor [8] = target: T2, GLP-1 receptor; remark: listed apart in the source
glucagon receptor [9] = target: T1, glucagon receptor; remark: listed apart in the source
GLP-1 receptor [10] = target: T2, GLP-1 receptor; remark: listed apart in the source
glucagon receptor [11] = target: T1, glucagon receptor; remark: listed apart in the source
GLP-1 receptor [12] = target: T2, GLP-1 receptor; remark: listed apart in the source

H[Aib]QGTFTSDYSKYLDEQAAKEFIC([maleimide-PEG 40 kDa])WLMNT [Peptide X-PEG]
% activity of native glucagon (glucagon receptor [1]): 1.9% | EC50 (cAMP, CRE-luciferase) (glucagon receptor [1]): 2.9 nM

H[Aib]QGTFTSDYSKYLDEQAAKEFICWLMNT (lactam 16-20) [Peptide Y]
% activity of native glucagon (glucagon receptor [1]): 99.5%

HSQGTFTSDYSKYLDEQAAKEFIAWLMNT-NH2 [E16 GLP(17-26)Glu(27-29)-NH2]
cAMP induction EC50 (GLP-1 receptor [2]): 0.014 nM | cAMP induction EC50 (glucagon receptor [3]): 0.076 nM

H[Aib]QGTFTSDK(Stearoyl)SKYLDEQAAKEFIC(PEG40kDa)WLMNT-NH2 [Peptide Chimera 2-AIB2-K10-acylated]
EC50 (GLP-1 receptor [4]): 0.465 nM

HS[Dab](Ac)GTFTSDYSKYLD[Aib]RRATDFVTWLLDE [HSDab(Ac)…ibRRATDFVTWLLDE (SEQ ID NO: 606)]
% activity (glucagon receptor [5]): 46% | EC50 (glucagon receptor [5]): 0.057 nM

HS[Dab](Ac)GTFTSDYSKYLD[Aib]RRASDFVSWLLDE [HSDab(Ac)…ibRRASDFVSWLLDE (SEQ ID NO: 605)]
% activity (glucagon receptor [5]): 54% | EC50 (glucagon receptor [5]): 0.048 nM

HSQGTFTSDYSKYLDEQAAKEFIAWLVKG-NH2 [E16 GLP(17-29)-NH2]
cAMP induction EC50 (GLP-1 receptor [2]): 0.01 nM | cAMP induction EC50 (glucagon receptor [3]): 0.46 nM

HSQGTFTSDYSKYLDSRRAQDFVQWLVKGGPSSGAPPPS-NH2 [VKGG30 PSSGAPPPS (SEQ ID NO: 524)]
EC50 (GLP-1 receptor [6]): 0.21 nM | Relative Potency (%) (GLP-1 receptor [6]): 12% | EC50 (glucagon receptor [7]): 1.16 nM | Relative Potency (%) (glucagon receptor [7]): 7%

HSQGTFTSDYSKYLDSRRAQDFVQWLMDGGPSSGAPPPS-NH2 [MDGG30 PSSGAPPPS (SEQ ID NO: 525)]
EC50 (GLP-1 receptor [6]): 0.13 nM | Relative Potency (%) (GLP-1 receptor [6]): 19% | EC50 (glucagon receptor [7]): 0.12 nM | Relative Potency (%) (glucagon receptor [7]): 72%

HSQGTFTSDYSKYLDEQAAKEFIC(PEG 40 kDa)WLMNT-NH2 [Chimera 2 Cys24 (40K)]
EC50 (GLP-1 receptor [8]): 0.04 nM | EC50 (glucagon receptor [9]): 2.83 nM

B1: HSDab(Ac)…ibRRAADFVAWLLDTGPSSGAPPPS amide (SEQ ID NO: 604) (peptide)
peptide: HS[Dab](Ac)GTFTSDYSKYLD[Aib]RRAADFVAWLLDTGPSSGAPPPS-NH2
modifications: N-terminus assumed
SMILES: CC(=O)NCC[C@H](NC(=O)[C@H](CO)NC(=O)[C@@H](N)Cc1c[nH]cn1)C(=O)NCC(=O)N[C@H](C(=O)N[C@@H](Cc1ccccc1)C(=O)N[C@H](C(=O)N[C@@H](CO)C(=O)N[C@@H](CC(=O)O)C(=O)N[C@@H](Cc1ccc(O)cc1)C(=O)N[C@@H](CO)C(=O)N[C@@H](CCCCN)C(=O)N[C@@H](Cc1ccc(O)cc1)C(=O)N[C@@H](CC(C)C)C(=O)N[C@@H](CC(=O)O)C(=O)NC(C)(C)C(=O)N[C@@H](CCCNC(=N)N)C(=O)N[C@@H](CCCNC(=N)N)C(=O)N[C@@H](C)C(=O)N[C@@H](C)C(=O)N[C@@H](CC(=O)O)C(=O)N[C@@H](Cc1ccccc1)C(=O)N[C@H](C(=O)N[C@@H](C)C(=O)N[C@@H](Cc1c[nH]c2ccccc12)C(=O)N[C@@H](CC(C)C)C(=O)N[C@@H](CC(C)C)C(=O)N[C@@H](CC(=O)O)C(=O)N[C@H](C(=O)NCC(=O)N1CCC[C@H]1C(=O)N[C@@H](CO)C(=O)N[C@@H](CO)C(=O)NCC(=O)N[C@@H](C)C(=O)N1CCC[C@H]1C(=O)N1CCC[C@H]1C(=O)N1CCC[C@H]1C(=O)N[C@@H](CO)C(N)=O)[C@@H](C)O)C(C)C)[C@@H](C)O)[C@@H](C)O
% activity (glucagon receptor [5]): 113% | EC50 (glucagon receptor [5]): 0.023 nM

B2: Chi-2, AIB2, I7, Lys10 γE-γE-C16 (SEQ ID NO: 650) (peptide)
peptide: H[Aib]QGTFISDK([γGlu-γGlu-Palmitoyl])SKYLDEQAAKEFIAWLMNT-NH2
modifications: N-terminus assumed
SMILES: CCCCCCCCCCCCCCCC(=O)N[C@@H](CCC(=O)N[C@@H](CCC(=O)NCCCC[C@H](NC(=O)[C@H](CC(=O)O)NC(=O)[C@H](CO)NC(=O)[C@@H](NC(=O)[C@H](Cc1ccccc1)NC(=O)[C@@H](NC(=O)CNC(=O)[C@H](CCC(N)=O)NC(=O)C(C)(C)NC(=O)[C@@H](N)Cc1c[nH]cn1)[C@@H](C)O)[C@@H](C)CC)C(=O)N[C@@H](CO)C(=O)N[C@@H](CCCCN)C(=O)N[C@@H](Cc1ccc(O)cc1)C(=O)N[C@@H](CC(C)C)C(=O)N[C@@H](CC(=O)O)C(=O)N[C@@H](CCC(=O)O)C(=O)N[C@@H](CCC(N)=O)C(=O)N[C@@H](C)C(=O)N[C@@H](C)C(=O)N[C@@H](CCCCN)C(=O)N[C@@H](CCC(=O)O)C(=O)N[C@@H](Cc1ccccc1)C(=O)N[C@H](C(=O)N[C@@H](C)C(=O)N[C@@H](Cc1c[nH]c2ccccc12)C(=O)N[C@@H](CC(C)C)C(=O)N[C@@H](CCSC)C(=O)N[C@@H](CC(N)=O)C(=O)N[C@H](C(N)=O)[C@@H](C)O)[C@@H](C)CC)C(=O)O)C(=O)O
EC50 (GLP-1 receptor [10]): 0.01 nM | EC50 (glucagon receptor [11]): 7 pM

B3: Peptide Chimera 2-AIB2-K30-acylated (peptide)
peptide: HXQGTFTSDYSKYLDEQAAKEFICWLMNTK
modifications: AIB at 2; Lys acylated with C18 (text says position 10, the name and the sequence say K30); 40 kDa PEG on Cys 24; C-terminal amide
EC50 (GLP-1 receptor [4]): 0.007 nM

HSQGTFTSDYSKYLDEQAAKEFIEWLVKG-NH2 [E16 GLP(17-29)-NH2 E24, K28]
cAMP induction EC50 (GLP-1 receptor [2]): 0.007 nM | cAMP induction EC50 (glucagon receptor [3]): 0.23 nM

B4: Peptide 81** (SEQ ID NO: 618) (peptide)
peptide: H[Aib]QGTFTSDK([Ala-Ala-Myristoyl])SKYLD[Aib]RRAQDFVCWLMNT-NH2
modifications: N-terminus assumed
SMILES: CCCCCCCCCCCCCC(=O)N[C@@H](C)C(=O)N[C@@H](C)C(=O)NCCCC[C@H](NC(=O)[C@H](CC(=O)O)NC(=O)[C@H](CO)NC(=O)[C@@H](NC(=O)[C@H](Cc1ccccc1)NC(=O)[C@@H](NC(=O)CNC(=O)[C@H](CCC(N)=O)NC(=O)C(C)(C)NC(=O)[C@@H](N)Cc1c[nH]cn1)[C@@H](C)O)[C@@H](C)O)C(=O)N[C@@H](CO)C(=O)N[C@@H](CCCCN)C(=O)N[C@@H](Cc1ccc(O)cc1)C(=O)N[C@@H](CC(C)C)C(=O)N[C@@H](CC(=O)O)C(=O)NC(C)(C)C(=O)N[C@@H](CCCNC(=N)N)C(=O)N[C@@H](CCCNC(=N)N)C(=O)N[C@@H](C)C(=O)N[C@@H](CCC(N)=O)C(=O)N[C@@H](CC(=O)O)C(=O)N[C@@H](Cc1ccccc1)C(=O)N[C@H](C(=O)N[C@@H](CS)C(=O)N[C@@H](Cc1c[nH]c2ccccc12)C(=O)N[C@@H](CC(C)C)C(=O)N[C@@H](CCSC)C(=O)N[C@@H](CC(N)=O)C(=O)N[C@H](C(N)=O)[C@@H](C)O)C(C)C
EC50 (GLP-1 receptor [12]): 0.018 nM

HSQGTFTSDYSKYLDSRRAQDFVQWLMKGGPSSGAPPPS-NH2 [MKGG30 PSSGAPPPS (SEQ ID NO: 523)]
EC50 (GLP-1 receptor [6]): 0.8 nM | Relative Potency (%) (GLP-1 receptor [6]): 3% | EC50 (glucagon receptor [7]): 0.61 nM | Relative Potency (%) (glucagon receptor [7]): 14%
